According to patent US8003609B2, “Method for ameliorating pain by modification of NMDA receptors through inhibition of Src” (The Hospital for Sick Children, priority 2004, dated 2011):

Molecular target: T1, interaction between Src and ND2 (Rattus norvegicus, UniProt P11662)
T1 construct: from tissue; host or cells: rat brain post-synaptic density fraction
T1 sequence (P11662 1-346): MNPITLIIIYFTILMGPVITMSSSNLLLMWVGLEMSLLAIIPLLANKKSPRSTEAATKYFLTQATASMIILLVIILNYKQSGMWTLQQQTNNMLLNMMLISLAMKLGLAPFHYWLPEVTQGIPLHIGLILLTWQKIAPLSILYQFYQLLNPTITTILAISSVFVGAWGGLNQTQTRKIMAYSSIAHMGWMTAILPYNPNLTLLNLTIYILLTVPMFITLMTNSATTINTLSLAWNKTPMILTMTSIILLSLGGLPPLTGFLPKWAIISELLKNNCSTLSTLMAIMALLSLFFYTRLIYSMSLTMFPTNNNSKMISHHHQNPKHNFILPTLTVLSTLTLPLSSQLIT
Assay: co-immunoprecipitation of ND2 by anti-Src from PSD proteins
Assay type: binding
Settings: PSD proteins incubated with peptide
Protocol: Detailed protocols for in vitro binding assays, pull down assays, immunoblotting, and co-immunoprecipitation techniques can be found in Pelkey et al. (Neuron 34:127-138 2002).
Post-synaptic density proteins (Kennedy et al. Proceedings of the National Academy of Science USA 80:7357-7361 1983) were prepared from rat brain as described in detail (Pelkey et al. Neuron 34:127-138 2002). Cellular fractionation of rat brain tissue into nuclear, heavy mitochondrial, light mitochondrial, microsomal, and cytosolic fractions was performed by differential centrifugation of tissue homogenate in 0.25 M sucrose/10 mM HEPES-NaOH, 1 mM EDTA, pH 7.4 with 2 μg each of aprotinin, pepstatin A, and leupeptin (Sigma, St. Louis, Mo.) at 4° C. Nuclei were pelleted by centrifugation at 1 000 g for 10 minutes, the supernatant was removed and spun at 3 000 g for 10 minutes to obtain a heavy mitochondrial pellet. The supernatant was removed and spun at 16 000 g for 15 minutes to obtain a light mitochondrial pellet. The supernatant was removed and spun at 100 000 g for 1 hour to obtain a microsomal pellet and the cytosolic fraction. All pellets were then resuspended in RIPA buffer (50 mM Tris pH 7.6, 150 mM NaCl, 1 mM EDTA, 1% NP-40, 2.5 mg/ml NaDOC, 1 mM Na3VO4 1 mM PMSF, and 2 μg/ml each of protease inhibitors). The light mitochondrial fraction was used in subsequent experiments. […]

With “Src40-58: peptide comprising amino acid residues 40-58 of SEQ ID NO:4 (Src) (PASADGHRGPSAAFAPAAA; listed as Homo sapiens)” as the substance, how does the “co-immunoprecipitation of ND2 by anti-Src” value read?
Its value is “prevented”.

What about the “immunoprecipitation of Src from PSDs” value of the same substance?
The value was “did not affect”.
